Measurements taken from US20230407373A1 (priority 2020, published 2023).
“Also recorded” adds a separate entry of the source. Read-outs that look alike come from different tables or passages of the source.

Tests used:
[1] = system: SARS-CoV-2; assay type: cell-based; conditions: for change in viral RNA levels (gRNA, N sgRNA) after siRNA depletion: Calu-3 cells, 50 nM siRNA, RT-qPCR, relative to siNC
[2] = system: SARS-CoV-2 gRNA and sgRNAs; assay type: binding; conditions: for target (unweighted spectral count in RNP capture): Probe II capture, LC-MS/MS LFQ; for background (unweighted spectral count in control): no-probe control pull-down, used as background for Probe II
[3] = system: SARS-CoV-2 gRNA; assay type: binding; conditions: for target (unweighted spectral count of the protein in the RNP capture): LC-MS/MS, Probe I sample (first 199 lines of Table 2)
[4] = system: HCoV-OC43 gRNA and sgRNA; assay type: binding; conditions: for target (unweighted spectral count): OC43 Probe II, infected cells; for target (unweighted spectral count, OC43 Probe II) / background (unweighted spectral count, no-probe control): type n_48_v, 48 hpi; for target (unweighted spectral count, OC43 Probe II): OC43 Probe II capture on infected cells; for background (unweighted spectral count, no-probe control): no-probe control on infected cells; for target (spectral count) / background (spectral count): type s_36_m, Probe II; for target (spectral count): HCoV-OC43-infected HCT-8 cells; for background (spectral count): uninfected-probe control
[5] = system: gRNA of HCoV-OC43; assay type: binding; conditions: for target (spectral count) / background (spectral count): type g_36_m, 36 hpi, Probe I; for target (spectral count): HCoV-OC43-infected HCT-8 cells; for background (spectral count): uninfected-probe control; for target (spectral count, OC43 Probe I RNP capture) / background (spectral count, no-probe control): type n_48_v: 48 hours post-infection; for target (spectral count, OC43 Probe I RNP capture): infected cells, unweighted spectral count; for background (spectral count, no-probe control): no-probe control on infected cells
[6] = 12 hpi (type n_12_v), tested against no-probe control
[7] = 24 hpi (type n_24_v), tested against no-probe control

B1: FUBP3: host protein, UniProt Q96I24 (protein, UniProt Q96I24 2-572, looked up)
Far upstream element-binding …: AELVQGQSAPVGMKAEGFVDALHRVRQIAAKIDSIPHLNNSTPLVDPSVYGYGVQKRPLDDGVGNQLGALVHQRTVITEEFKVPDKMVGFIIGRGGEQISRIQAESGCKIQIASESSGIPERPCVLTGTPESIEQAKRLLGQIVDRCRNGPGFHNDIDSNSTIQEILIPASKVGLVIGRGGETIKQLQERTGVKMVMIQDGPLPTGADKPLRITGDAFKVQQAREMVLEIIREKDQADFRGVRGDFNSRMGGGSIEVSVPRFAVGIVIGRNGEMIKKIQNDAGVRIQFKPDDGISPERAAQVMGPPDRCQHAAHIISELILTAQERDGFGGLAAARGRGRGRGDWSVGAPGGVQEITYTVPADKCGLVIGKGGENIKSINQQSGAHVELQRNPPPNSDPNLRRFTIRGVPQQIEVARQLIDEKVGGTNLGAPGAFGQSPFSQPPAPPHQNTFPPRSSGCFPNMAAKVNGNPHSTPVSGPPAFLTQGWGSTYQAWQQPTQQVPSQQSQPQSSQPNYSKAWEDYYKKQSHAASAAPQASSPPDYTMAWAEYYRQQVAFYGQTLGQAQAHSQEQ
- change in viral RNA levels (gRNA, N sgRNA) after siRNA depletion [1]: increased the viral RNA levels
- enrichment in SARS-CoV-2 Probe II RNP capture [2]: enriched; also recorded: found in the SARS-CoV-2 experiments
- target (unweighted spectral count in RNP capture) [2]: 173
- background (unweighted spectral count in control) [2]: 1
- enrichment in SARS-CoV-2 Probe I RNP capture [3]: enriched; also recorded: found in the SARS-CoV-2 experiments
- target (unweighted spectral count of the protein in the RNP capture) [3]: 94
- target (unweighted spectral count, OC43 Probe II capture) ([4]; 36 hpi, type n_36_v, tested against no-probe control, FDR<10%): 42
- target (unweighted spectral count) [4, 6]: 11
- target (unweighted spectral count) [4, 7]: 27
- enrichment / detection in HCoV-OC43 Probe II RNP capture ([4]; infected HCT-8 cells): enriched
- target (unweighted spectral count, OC43 Probe II) [4]: 71
- background (unweighted spectral count, no-probe control) [4]: 3
- target (spectral count) ([4]; 36 hpi): 42
- background (spectral count) ([4]; 36 hpi): 6
- enrichment / detection in HCoV-OC43 Probe I RNP capture ([5]; infected HCT-8 cells): enriched
- target (spectral count) [5]: 49
- background (spectral count) [5]: 9
- target (spectral count, OC43 Probe I RNP capture) [5]: 47
- background (spectral count, no-probe control) [5]: 3

B2: CSDE1: host protein, UniProt O75534 (protein, UniProt O75534 1-798, looked up)
Cold shock domain-containing …: MSFDPNLLHNNGHNGYPNGTSAALRETGVIEKLLTSYGFIQCSERQARLFFHCSQYNGNLQDLKVGDDVEFEVSSDRRTGKPIAVKLVKIKQEILPEERMNGQVVCAVPHNLESKSPAAPGQSPTGSVCYERNGEVFYLTYTPEDVEGNVQLETGDKINFVIDNNKHTGAVSARNIMLLKKKQARCQGVVCAMKEAFGFIERGDVVKEIFFHYSEFKGDLETLQPGDDVEFTIKDRNGKEVATDVRLLPQGTVIFEDISIEHFEGTVTKVIPKVPSKNQNDPLPGRIKVDFVIPKELPFGDKDTKSKVTLLEGDHVRFNISTDRRDKLERATNIEVLSNTFQFTNEAREMGVIAAMRDGFGFIKCVDRDVRMFFHFSEILDGNQLHIADEVEFTVVPDMLSAQRNHAIRIKKLPKGTVSFHSHSDHRFLGTVEKEATFSNPKTTSPNKGKEKEAEDGIIAYDDCGVKLTIAFQAKDVEGSTSPQIGDKVEFSISDKQRPGQQVATCVRLLGRNSNSKRLLGYVATLKDNFGFIETANHDKEIFFHYSEFSGDVDSLELGDMVEYSLSKGKGNKVSAEKVNKTHSVNGITEEADPTIYSGKVIRPLRSVDPTQTEYQGMIEIVEEGDMKGEVYPFGIVGMANKGDCLQKGESVKFQLCVLGQNAQTMAYNITPLRRATVECVKDQFGFINYEVGDSKKLFFHVKEVQDGIELQAGDEVEFSVILNQRTGKCSACNVWRVCEGPKAVAAPRPDRLVNRLKNITLDDASAPRLMVLRQPRGPDNSMGFGAERKIRQAGVID
- antiviral or proviral role of the host protein indicated by knockdown [1]: proviral effects
- enrichment in SARS-CoV-2 Probe II RNP capture [2]: enriched
- target (unweighted spectral count in RNP capture) [2]: 92
- background (unweighted spectral count in control) [2]: 1
- enrichment in SARS-CoV-2 Probe I RNP capture [3]: enriched
- target (unweighted spectral count of the protein in the RNP capture) [3]: 37
- target (unweighted spectral count) [4, 7]: 18
- target (unweighted spectral count, OC43 Probe II) [4]: 21
- background (unweighted spectral count, no-probe control) [4]: 1
- target (spectral count) ([4]; 36 hpi): 24
- background (spectral count) ([4]; 36 hpi): 3
- target (spectral count, OC43 Probe I RNP capture) [5]: 20
- background (spectral count, no-probe control) [5]: 1

B3: HDLBP: host protein, UniProt Q00341 (protein, UniProt Q00341 2-1268, looked up)
Vigilin: SSVAVLTQESFAEHRSGLVPQQIKVATLNSEEESDPPTYKDAFPPLPEKAACLESAQEPAGAWGNKIRPIKASVITQVFHVPLEERKYKDMNQFGEGEQAKICLEIMQRTGAHLELSLAKDQGLSIMVSGKLDAVMKARKDIVARLQTQASATVAIPKEHHRFVIGKNGEKLQDLELKTATKIQIPRPDDPSNQIKITGTKEGIEKARHEVLLISAEQDKRAVERLEVEKAFHPFIAGPYNRLVGEIMQETGTRINIPPPSVNRTEIVFTGEKEQLAQAVARIKKIYEEKKKKTTTIAVEVKKSQHKYVIGPKGNSLQEILERTGVSVEIPPSDSISETVILRGEPEKLGQALTEVYAKANSFTVSSVAAPSWLHRFIIGKKGQNLAKITQQMPKVHIEFTEGEDKITLEGPTEDVNVAQEQIEGMVKDLINRMDYVEINIDHKFHRHLIGKSGANINRIKDQYKVSVRIPPDSEKSNLIRIEGDPQGVQQAKRELLELASRMENERTKDLIIEQRFHRTIIGQKGERIREIRDKFPEVIINFPDPAQKSDIVQLRGPKNEVEKCTKYMQKMVADLVENSYSISVPIFKQFHKNIIGKGGANIKKIREESNTKIDLPAENSNSETIIITGKRANCEAARSRILSIQKDLANIAEVEVSIPAKLHNSLIGTKGRLIRSIMEECGGVHIHFPVEGSGSDTVVIRGPSSDVEKAKKQLLHLAEEKQTKSFTVDIRAKPEYHKFLIGKGGGKIRKVRDSTGARVIFPAAEDKDQDLITIIGKEDAVREAQKELEALIQNLDNVVEDSMLVDPKHHRHFVIRRGQVLREIAEEYGGVMVSFPRSGTQSDKVTLKGAKDCVEAAKKRIQEIIEDLEAQVTLECAIPQKFHRSVMGPKGSRIQQITRDFSVQIKFPDREENAVHSTEPVVQENGDEAGEGREAKDCDPGSPRRCDIIIISGRKEKCEAAKEALEALVPVTIEVEVPFDLHRYVIGQKGSGIRKMMDEFEVNIHVPAPELQSDIIAITGLAANLDRAKAGLLERVKELQAEQEDRALRSFKLSVTVDPKYHPKIIGRKGAVITQIRLEHDVNIQFPDKDDGNQPQDQITITGYEKNTEAARDAILRIVGELEQMVSEDVPLDHRVHARIIGARGKAIRKIMDEFKVDIRFPQSGAPDPNCVTVTGLPENVEEAIDHILNLEEEYLADVVDSEALQVYMKPPAHEEAKAPSRGFVVRDAPWTASSSEKAPDMSSSEEFPSFGAQVAPKTLPWGPKR
- change in viral RNA levels (gRNA, N sgRNA) after siRNA depletion [1]: increased the viral RNA levels
- target (unweighted spectral count of the protein in the RNP capture) [3]: 23
- target (unweighted spectral count) [4, 6]: 11
- target (unweighted spectral count) [4, 7]: 24
- target (unweighted spectral count, OC43 Probe II) [4]: 50
- background (unweighted spectral count, no-probe control) [4]: 2
- target (spectral count) ([4]; 36 hpi): 36
- background (spectral count) ([4]; 36 hpi): 1
- target (spectral count) [5]: 26
- background (spectral count) [5]: 3
- target (spectral count, OC43 Probe I RNP capture) [5]: 16
- background (spectral count, no-probe control) [5]: 2
